± gives the uncertainty stated by the source.
Assay: protein stability index of a GFP-peptide fusion (yeast GPS) (PSI 1-4); higher = more stable; sorted into four equal gates, so the index is relative within each strain
How it was run: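 The protein stability index combines read frequencies across sorting gates, each weighted by its gate number and then summed. To obtain those frequencies, a pooled yeast library of GFP fusions to tiled 17-residue yeast protein peptides, on a plasmid also expressing Cherry, was grown to mid-log phase in leucine-free medium. The cells were sorted into four equal gates by GFP/Cherry ratio before plasmid amplification by PCR and Illumina sequencing.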

| Sequence | protein stability index (doa10∆) | protein stability index (pdr5∆) | protein stability index (san1∆) | protein stability index (ubr1∆) |
| --- | --- | --- | --- | --- |
| LLISLNILFSLWKLLST [YLR018C/POM34] | 1.63 ± 0.071 | 1.25 ± 0.077 | 1.22 ± 0.21 | 1.18 ± 0.067 |
| EASTVPWGDYLQLETPA [BRR2] | 1.42 ± 0.066 | 2.13 ± 0.16 | 2.58 ± 0.14 | 1.53 ± 0.098 |
| CESCSTVLCTPTGGKAK [RPS27B] | 1.94 ± 0.068 | 2.5 ± 0.056 | 2.07 ± 0.081 | 2.51 ± 0.053 |
| TSIRLEGDELENKTKKD [SRB4] |  | 3.78 ± 0.26 |  |  |
| REAIRPGHEMEDFLDKS [AAR2] | 3.23 ± 0.062 | 2.87 ± 0.056 | 3.24 ± 0.044 | 3.22 ± 0.036 |
| ALIRRDFTLIPRMASVF [CDC53] | 2.12 ± 0.13 | 2.39 ± 0.072 | 2.64 ± 0.16 | 2.17 ± 0.14 |
| ALFFDPSLNPIPHFIDN [PRP8] | 2.64 ± 0.058 | 2.77 ± 0.047 | 2.47 ± 0.057 | 2.61 ± 0.04 |
| LQQGMRGAWGKPHGLAA [RPL10] | 2.47 ± 0.1 | 2.57 ± 0.097 | 2.24 ± 0.23 | 2.52 ± 0.069 |
| YFGENSSISWKNIAQCL [YJL039C/NUP192] | 1.95 ± 0.084 | 2.57 ± 0.066 | 1.93 ± 0.064 | 2.11 ± 0.062 |
| LEILIVTKDGVRKEFYE [PRE7] | 2.91 ± 0.063 | 2.54 ± 0.049 | 3.14 ± 0.043 | 2.92 ± 0.049 |
| QFYVKRWKRFTIGAIFL [CDC53] | 2.81 ± 0.076 | 2.94 ± 0.093 | 3.08 ± 0.099 | 2.04 ± 0.055 |
| GEITKTENEKFISYHDK [NUT1] | 3.31 ± 0.097 | 3.35 ± 0.077 | 3.39 ± 0.057 | 3.17 ± 0.079 |
| SQPTAAGGPDMTTPQNI [DSN1] | 1.82 ± 0.065 | 1.9 ± 0.063 | 1.89 ± 0.1 | 1.36 ± 0.053 |
| GNPLSIGTLEEIIDDDH [RPT2] | 3.28 ± 0.1 | 3.43 ± 0.14 | 3.14 ± 0.076 | 3.24 ± 0.17 |
| PTLAGMAQRTLKNKYES [FAS2] | 2.76 ± 0.031 | 2.67 ± 0.027 | 2.63 ± 0.029 | 2.657 ± 0.02 |
| VVAAAEDDDNEQHEEKA [QCR6] | 2.87 ± 0.12 | 2.98 ± 0.15 |  | 3.07 ± 0.16 |
| SQVVWIRRLRVLRRLLA [RPL19A] | 1.22 ± 0.054 | 1.46 ± 0.049 | 1.44 ± 0.12 | 1.29 ± 0.053 |
| RHSNALVDILPPDSDSS [RPT3] | 2.51 ± 0.076 | 2.65 ± 0.067 | 2.69 ± 0.062 | 2.47 ± 0.056 |
| KNVKHSGNIQLDEIIEI [RPL12A] | 3.24 ± 0.071 | 3.2 ± 0.067 | 3.15 ± 0.053 | 3.22 ± 0.065 |
| PPGYEIEELDNPMVPSS [PRP8] | 2.42 ± 0.1 | 2.65 ± 0.066 | 3.26 ± 0.085 | 2.82 ± 0.049 |

| Sequence | protein stability index (doa10∆) | protein stability index (pdr5∆) | protein stability index (san1∆) | protein stability index (ubr1∆) |
| --- | --- | --- | --- | --- |
| SENRNNIKSSISNGNLA [YOR098C/NUP1] |  | 3.65 ± 0.24 | 2.96 ± 0.22 | 3.17 ± 0.24 |
| RNSYPASFYSVNTEKKT [RPN3] | 3.4 ± 0.29 | 3.06 ± 0.13 | 2.82 ± 0.068 | 3.46 ± 0.14 |
| EDAKLKTDLELLVERLK [RPN1] | 1.24 ± 0.074 | 1.19 ± 0.049 | 1.29 ± 0.14 | 1.51 ± 0.073 |
| LLSLISTTAALQSISSL [RPN7] | 1.94 ± 0.053 | 1.95 ± 0.05 | 1.77 ± 0.075 | 2.24 ± 0.049 |
| KNSTSSMTAVPKPLKFL [RPN1] | 2.03 ± 0.071 | 2.31 ± 0.072 | 1.98 ± 0.062 | 2.15 ± 0.069 |
| LLKELSKNAQFICTTFR [SMC3] | 2.45 ± 0.063 | 2.01 ± 0.052 | 1.84 ± 0.1 | 1.94 ± 0.048 |
| SILEEKIAVLNNDKREI [SMC1] | 3.21 ± 0.071 | 3.38 ± 0.057 | 3.25 ± 0.051 | 3.33 ± 0.061 |
| EKGKKVSGFKDEVLETV [RPS1B] | 3.39 ± 0.11 | 2.82 ± 0.11 | 3.48 ± 0.11 | 3.44 ± 0.084 |
| EYALPKTYNKLHYCVSC [RPS26A] | 1.24 ± 0.069 | 1.42 ± 0.055 | 1.34 ± 0.12 | 1.41 ± 0.04 |
| AEKSYLYDSLASTPSIR [RRP42] | 2.57 ± 0.15 | 2.33 ± 0.1 | 2.46 ± 0.19 | 3.2 ± 0.11 |
| KAMSSRAGVSQVLNRYT [RPB2] | 3.17 ± 0.11 | 3.21 ± 0.096 | 2.97 ± 0.073 | 3.29 ± 0.053 |
| YSENGKHDSLRYRLLSD [RPN1] | 2.5 ± 0.073 | 2.49 ± 0.075 | 2.51 ± 0.1 | 2.49 ± 0.1 |
| VEQGYEDAFNFWFDKLV [YCG1] | 3.05 ± 0.12 | 2.66 ± 0.14 | 3.38 ± 0.1 | 2.38 ± 0.2 |
| PTLQVGDLVYARVCTAE [RRP40] | 1.5 ± 0.075 | 1.85 ± 0.12 | 1.42 ± 0.12 | 1.88 ± 0.082 |
| SQTPSFNTNSSFTPSTV [YOR098C/NUP1] | 2.4 ± 0.033 | 2.671 ± 0.025 | 2.52 ± 0.033 | 2.898 ± 0.026 |
| EEPSRVDPEQEAHNKAL [RPT4] | 3.4 ± 0.16 | 3.31 ± 0.1 | 3.46 ± 0.063 | 3.23 ± 0.11 |
| SSTGVPESIDTILSSKL [SRB2] | 2.62 ± 0.19 | 2.92 ± 0.13 | 2.93 ± 0.075 | 3.04 ± 0.075 |
| TLGNLIRAELLNDRKVL [RPB11] | 3.06 ± 0.17 | 2.74 ± 0.25 | 3.08 ± 0.15 | 2.87 ± 0.23 |
| PRPSYSSRPNVNTTRRF [YMR129W/POM152] | 2.89 ± 0.099 | 2.97 ± 0.096 | 2.92 ± 0.074 | 2.82 ± 0.067 |

— the supplement of paper PMC9732359
